The results in this text go back to paper PMC12049944, “Lecithin:cholesterol acyltransferase binds a discontinuous binding site on adjacent apolipoprotein A-I belts in HDL” (Journal of Lipid Research, 2025).

The series concerns the molecule itself. In words: SEC; LCAT alone on triple Superdex 200 Increase, run beside rHDL alone and the cross-linked mixture. For orientation: Size exclusion chromatography separates by hydrodynamic size, large species first.

B1: Lecithin:cholesterol acyltransferase (recombinant, expressed in CHO cells) (enzyme, human, UniProt P04180 25-440, looked up)
chain: FWLLNVLFPPHTTPKAELSNHTRPVILVPGCLGNQLEAKLDKPDVVNWMCYRKTEDFFTIWLDLNMFLPLGVDCWIDNTRVVYNRSSGLVSNAPGVQIRVPGFGKTYSVEYLDSSKLAGYLHTLVQNLVNNGYVRDETVRAAPYDWRLEPGQQEEYYRKLAGLVEEMHAAYGKPVFLIGHSLGCLHLLYFLLRQPQAWKDRFIDGFISLGAPWGGSIKPMLVLASGDNQGIPIMSSIKLKEEQRITTTSPWMFPSRMAWPEDHVFISTPSFNYTGRDFQRFFADLHFEEGWYMWLQSRDLLAGLPAPGVEVYCLYGVGLPTPRTYIYDHGFPYTDPVGVLYEDGDDTVATRSTELCGLWQGRQPQPVHLLPLHGIQHLNMVFSNLTLEHINAILLGAYRQGPPASPTASPEPPPPE
notes: Lecithin:cholesterol acyltransferase, human; cross-links to 'LCAT residue 1' (the N-terminus) are reported; Used for all non-cryoEM experiments (cross-linking, SEC, negative-stain EM, activity assays); also called LCAT; human LCAT; source: CHO cells, recombinant, gifted by Alan Remaley
As for B1, the binding result is recorded as “binds”.
